This note sets out measurements from patent US8841270B2, “Use of inhibitors of Zdhhc2 activity for modulation of adipogenesis” (Sanofi, priority 2009, dated 2014).

The test system of one data set is C57BL/6J mice. Briefly: Rimonabant treatment of high fat diet fed mice, glucose tolerance. Particulars: HFD C57BL/6J mice, rimonabant 10 mg·kg−1·day−1 for one month. The data set is classed as in vivo, mouse. The text has this:
C57BL/6J mice, which are obesity-prone (5), were fed for 6 months with a high fat diet (HFD).

In another data set the test system is 3T3-L1 cells. Put plainly: Adipogenesis of retrovirally transduced 3T3-L1 cells (oil-red-O staining, aP2 mRNA by RT-PCR). The data set is classed as cell-based, mouse. The method, then: 3T3-L1 cells were cultured in DMEM (Gibco) with 10% FBS (Gibco) at 5% CO2. After retroviral infection (see below), cells were allow to grow to confluence in either 100-mm or 60-mm dishes in DMEM with 10% FBS. Once confluence was reached, cells were exposed to differentiation medium containing dexamethasone (1 μM), insulin (5 μg/ml), and isobutylmethylxanthine ([…]) (DMI). After 2 days cells were maintained in medium containing insulin ([…]) until ready for harvest at 7 days.
After 7 to 10 days of differentiation, cells were washed once in PBS and fixed with formaldehyde (Formalde-fresh; Fisher) for 15 minutes. The staining solution was prepared by dissolving 0.5 g oil-red-0 in 100 ml of isopropanol; 60 ml of this solution was mixed with 40 ml of distilled water. After 1 hour at room temperature the staining solution was filtered and added to dishes for 4 hours. The staining solution was then removed and cells were washed twice with distilled water.
Retroviruses were constructed in the RNAi-Ready pSIREN-RetroQ ZsGreen (pSIREN Clontech). Viral constructs were transfected using calcium-phosphate method described in Jordan, M. et al. (2004) into 293 HEK packaging cells along with constructs encoding gag-pol and the VSV-G protein. […]

For the next data set, the system named is Zdhhc2. Put plainly: shRNA knockdown of Zdhhc2 expression, mRNA by RT-PCR. It counts as cell-based, mouse. Particulars: shRNA in pSIREN plasmid, tested in 293T HEK cells; mRNA by RT-PCR (FIG. 3A). The text has this: shRNAs were constructed using the RNAi-Ready pSIREN-RetroQ ZsGreen (Clontech). Target sequences for Zdhhc2 were designed by querying the Whitehead siRNA algorithm (http://jura.wi.mit.edu/bioc/siRNAext/) as well as the siRNA designer software from Clontech (http://bioinfo.clontech.com/rnaidesigner/); at least two sequences represented by both algorithms were subcloned into the pSIREN vectors (Clontech) using the EcoRI and BamH1 restriction sites. The following target sequences for Zdhhc2 were chosen SEQ ID NO. 5 and 6 as a negative control, we used the following siRNA sequence against luciferase: SEQ ID NO. 7.
The specificity of shRNAs was tested in 293T HEK cells co-transfected using calcium-Phosphate methods described in (14) with expression vectors containing Zdhhc2 cDNA and the RNAi-Ready pSIREN-RetroQ ZsGreen vector expressing either the shRNA against lucifeare (control shLUC) or Zdhhc2 (shZdhhc2). RT-PCR analysis was performed on cell RNA-extraction 24 h after transfection.
Total RNA was isolated from cultured cells using peqGOLD TriFast reagent according to the manufacturer's instructions (Axonlab). First strand cDNA was synthesized from 0.5 μg of total RNA using random primers and Superscript II (Invitrogen). […]
For the loss-of-function studies, shRNA specific for Zdhhc2 subcloned into a retroviral vector from Clontech were used (RNAi-Ready pSIREN-RetroQ ZsGreen or pSIREN). […]

With `Cc1c(C(=O)NN2CCCCC2)nn(-c2ccc(Cl)cc2Cl)c1-c1ccc(Cl)cc1` [rimonabant], the glucose tolerance entry with C57BL/6J mice is recorded as “normalized glucose tolerance”.

B1: shLuc: negative control shRNA directed against luciferase, SEQ ID NO. 7 (nucleic acid)
chain: GATCCGTGCGTTGCTAGTACCAATTCAAGAGATTGGTACTAGCAACGCACTTTTTTACGCGTG
For the molecule B1, in the data set on 3T3-L1 cells (3T3-L1 cells, oil-red-O staining and aP2 expression at day 9), the “inhibition of adipogenesis in vitro” value is reported as “no inhibition”.

B2: shZdhhc2-2: shRNA specific for Zdhhc2 in pSIREN retroviral vector; target sequence probably SEQ ID NO. 6 (nucleic acid)
DNA: GATCCGTATGAGCAACCCTGCATTTCAAGAGAATGCAGGGTTGCTCATACTTTTTTACGCGTG
For the molecule B2, the aP2 expression decreased in the data set with 3T3-L1 cells (infected 3T3-L1 cells, day 9 of differentiation with DMI, RT-PCR) is 60%. In addition, the “knockdown of Zdhhc2 expression” value in the data set with Zdhhc2 is 50%.
